Results from patent US20100317837A1.

How the values were obtained:
[1] = biological target: Env 89.6 on 293 cells (HIV-1 isolate 89.6, clade B); test: cell-based or functional assay
[2] = biological target: Env BR025.9 on 293 cells (HIV-1 isolate BR025.9, clade C); test: cell-based or functional assay
[3] = biological target: Env BR029.2 on 293 cells (HIV-1 isolate BR029.2, clade F); test: cell-based or functional assay
[4] = biological target: Env HT593.1 on 293 cells (HIV-1 isolate HT593.1, clade B); test: cell-based or functional assay
[5] = biological target: Env NL4-3 on 293 cells (HIV-1 NL4-3, clade B); test: cell-based or functional assay
[6] = biological target: Env RW020.5 on 293 cells (HIV-1 isolate RW020.5, clade A); test: cell-based or functional assay
[7] = biological target: Env TH022.4 on 293 cells (HIV-1 isolate TH022.4, clade EA); test: cell-based or functional assay
[8] = biological target: Env UG037.8 on 293 cells (HIV-1 isolate UG037.8, clade A); test: cell-based or functional assay
[9] = biological target: Env UG975.10 on 293 cells (HIV-1 isolate UG975.10, clade G); test: cell-based or functional assay
[10] = biological target: Env US005.11 on 293 cells (HIV-1 isolate US005.11, clade B); test: cell-based or functional assay
[11] = biological target: Env US715.6 on 293 cells (HIV-1 isolate US715.6, clade B); test: cell-based or functional assay
[12] = biological target: Env clone GX-C44 on pseudotype virus (HIV-1 isolate GX-C44, Clade C); test: cell-based or functional assay
[13] = biological target: Env clone GX-E14 on pseudotype virus (HIV-1 isolate GX-E14, Clade E); test: cell-based or functional assay
[14] = biological target: Env clone MN-TCLA on pseudotype virus (HIV-1 isolate MN-TCLA) (UniProt P05877); test: cell-based or functional assay
[15] = biological target: Env clone R2 on pseudotype virus (HIV-1 isolate R2, Clade B); test: cell-based or functional assay
[16] = biological target: Env clone TH966 on pseudotype virus (HIV-1 isolate TH966); test: cell-based or functional assay
[17] = biological target: Env clone VI1273 on pseudotype virus (HIV-1 isolate VI1273); test: cell-based or functional assay
[18] = biological target: Env clone VI1399 on pseudotype virus (HIV-1 isolate VI1399); test: cell-based or functional assay
[19] = biological target: Env clone Z2Z6 on pseudotype virus (HIV-1 isolate Z2Z6, Clade D); test: cell-based or functional assay
[20] = biological target: gp120 89.6 (HIV-1 isolate 89.6); test: ELISA, antigen coated on plate, soluble Fab titrated, Langmuir fit
[21] = biological target: gp120 JR-FL (HIV-1 isolate JR-FL); test: as above
[22] = biological target: sCD4-gp120 89.6 complex (HIV-1 isolate 89.6) (UniProt P01730); test: as above
[23] = biological target: Env clone 92RW020.5 on pseudotype virus (HIV-1 isolate 92RW020.5, Clade A); test: cell-based or functional assay
[24] = biological target: Env clone P37 on pseudotype virus (HIV-1 isolate P37); test: cell-based or functional assay
[25] = biological target: Env clone V5 on pseudotype virus (HIV-1 isolate V5); test: cell-based or functional assay
[26] = biological target: Env clone VI14004 on pseudotype virus (HIV-1 isolate VI14004, Clade F); test: cell-based or functional assay
[27] = biological target: gp120 IIIB (HIV-1 isolate IIIB) (UniProt P04578); test: ELISA, antigen coated on plate, soluble Fab titrated, Langmuir fit
[28] = biological target: gp140 89.6 (HIV-1 isolate 89.6); test: ELISA, soluble Fab titrated on Env (direct or D7324 capture format not specified)
[29] = biological target: gp120 IIIB (HIV-1 isolate IIIB) (UniProt P04578); test: ELISA, soluble Fab titrated on Env (direct or D7324 capture format not specified); IIIB* is gp120

Chain of UniProt P05877 (P05877 32-856 limits assumed): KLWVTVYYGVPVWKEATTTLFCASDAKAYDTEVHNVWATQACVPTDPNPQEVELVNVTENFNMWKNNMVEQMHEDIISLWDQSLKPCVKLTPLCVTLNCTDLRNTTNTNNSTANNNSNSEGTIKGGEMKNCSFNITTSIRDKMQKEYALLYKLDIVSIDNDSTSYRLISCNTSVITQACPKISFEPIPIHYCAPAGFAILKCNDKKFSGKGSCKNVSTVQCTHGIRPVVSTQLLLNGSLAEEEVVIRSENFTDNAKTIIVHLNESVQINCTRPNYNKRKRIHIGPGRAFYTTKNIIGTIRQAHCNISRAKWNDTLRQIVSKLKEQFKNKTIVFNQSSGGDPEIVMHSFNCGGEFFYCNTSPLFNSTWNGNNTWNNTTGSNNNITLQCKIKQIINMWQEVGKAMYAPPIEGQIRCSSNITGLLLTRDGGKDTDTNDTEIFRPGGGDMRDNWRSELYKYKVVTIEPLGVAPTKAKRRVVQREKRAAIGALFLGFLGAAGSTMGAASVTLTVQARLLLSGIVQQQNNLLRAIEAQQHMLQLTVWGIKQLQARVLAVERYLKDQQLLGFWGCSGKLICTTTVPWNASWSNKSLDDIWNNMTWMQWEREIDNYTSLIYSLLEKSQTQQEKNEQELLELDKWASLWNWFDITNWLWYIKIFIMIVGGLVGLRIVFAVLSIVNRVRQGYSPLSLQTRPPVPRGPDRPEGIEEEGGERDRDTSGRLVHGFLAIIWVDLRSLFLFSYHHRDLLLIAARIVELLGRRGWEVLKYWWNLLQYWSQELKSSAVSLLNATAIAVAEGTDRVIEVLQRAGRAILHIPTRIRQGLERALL

| Substance | % of fusion inhibition, cell-cell fusion assay, Fab at 50 µg/ml [1] [%] | % of fusion inhibition, cell-cell fusion assay, Fab at 50 µg/ml [2] [%] | % of fusion inhibition, cell-cell fusion assay, Fab at 50 µg/ml [3] [%] | % of fusion inhibition, cell-cell fusion assay, Fab at 50 µg/ml [4] [%] | % of fusion inhibition, cell-cell fusion assay, Fab at 50 µg/ml [5] [%] | % of fusion inhibition, cell-cell fusion assay, Fab at 50 µg/ml [6] [%] | % of fusion inhibition, cell-cell fusion assay, Fab at 50 µg/ml [7] [%] | % of fusion inhibition, cell-cell fusion assay, Fab at 50 µg/ml [8] [%] | % of fusion inhibition, cell-cell fusion assay, Fab at 50 µg/ml [9] [%] | % of fusion inhibition, cell-cell fusion assay, Fab at 50 µg/ml [10] [%] | % of fusion inhibition, cell-cell fusion assay, Fab at 50 µg/ml [11] [%] | Concentration of Fab at the 50% neutralization endpoint, pseudovirus assay [12] [µg/mL] | Concentration of Fab at the 50% neutralization endpoint, pseudovirus assay [13] [µg/mL] | Concentration of Fab at the 50% neutralization endpoint, pseudovirus assay [14] [µg/mL] | Concentration of Fab at the 50% neutralization endpoint, pseudovirus assay [15] [µg/mL] | Concentration of Fab at the 50% neutralization endpoint, pseudovirus assay [16] [µg/mL] | Concentration of Fab at the 50% neutralization endpoint, pseudovirus assay [17] [µg/mL] | Concentration of Fab at the 50% neutralization endpoint, pseudovirus assay [18] [µg/mL] | Concentration of Fab at the 50% neutralization endpoint, pseudovirus assay [19] [µg/mL] | Kd [20] [nM] | also measured |
| --- | --- | --- | --- | --- | --- | --- | --- | --- | --- | --- | --- | --- | --- | --- | --- | --- | --- | --- | --- | --- | --- |
| Fab X5 | 93 | 71 | 36 | 27 | 83 | 45 | 43 | 34 | 19 | 72 | 28 | – | – | – | – | – | – | – | – | – | – |
| Fab m14 | 100 | 71 | 71 | 78 | 96 | 31 | 100 | 100 | 22 | 95 | 35 | 8.8 | 100 | 2.24 | 2.24 | > 100 | 3.1 | > 100 | 50 | 5.4 | Kd [21]: 0.9 nM; Kd [22]: 7.3 nM |
| Fab m18 | 100 | 86 | 86 | 39 | 92 | 25 | 93 | 34 | 56 | 93 | 97 | > 25 | > 100 | < 1.6 | 1.6 | > 100 | 25 | > 100 | 25 | 1 | Concentration of Fab at the 50% neutralization endpoint, pseudovirus assay [23]: 3 µg/mL; Concentration of Fab at the 50% neutralization endpoint, pseudovirus assay [24]: 100 µg/mL; Concentration of Fab at the 50% neutralization endpoint, pseudovirus assay [25]: < 2 µg/mL; Concentration of Fab at the 50% neutralization endpoint, pseudovirus assay [26]: < 2 µg/mL; Kd [27]: 0.08 nM; Kd [21]: 0.9 nM; Kd [22]: 0.9 nM; EC50 [28]: 1.17 nM; EC50 [29]: 0.48 nM |
